From patent publication US10479836B2, “Method for treating pulmonary hypertension with interleukin-5 receptor antibody” (University of Toyama, priority 2015, dated 2019)
Blank lines part the entries; values can stand above or below the molecule they belong to.

Legend:
[1] = test system: rIL-33-induced pulmonary vascular wall thickening; assay: rIL-33-induced pulmonary arterial wall thickening, Heath-Edwards grading of lung tissue; type: in vivo, mouse; details: IL-5+/+ mice given rIL-33; intrabronchial administration on days 7 and 14; compared with PBS group; FIG. 8
Description: Therefore, the degree of vascular wall thickening in IL-5^+/+ mice and IL-5^V/V mice was quantitatively graded on the basis of the Heath-Edwards grading system. On days 0, 7, and 14, 400 ng of rIL-33 was administered to each mouse. On day 21, lung tissues were resected and subjected to pathological observation to conduct tissue classification on the basis of the Heath-Edwards grading system.
In this grading system, evaluation was carried out according to grade 1: medial thickening, grade 2: intimal thickening, grade 3: advanced intimal thickening and medial thickening, and grade 4; plexiform lesion in addition to advanced intimal thickening and medial thickening.
In an experimental system similar to that of Example 3, in order to confirm the inhibitory effect of an anti-IL-5 neutralizing antibody on intimal thickening and medial thickening, 100 μg of an anti-IL-5 rat monoclonal antibody (NC17) (Hitoshi et al., Int. Immunol., 1991; 3; 135-139) or a rat IgG control antibody (manufactured by Sigma-Aldrich Co., LLC) was intraperitoneally administered to each IL-5^+/+ mouse for 3 consecutive days (a total of 3 times) from two days before rIL-33 administration day. Then, on day 21, lung tissues were resected and subjected to pathological observation to conduct tissue classification on the basis of the Heath-Edwards grading system. […]

[2] = biological target: T1, mouse FcγRIIb (Mus musculus, UniProt P08101); assay: Biacore steady state affinity for mouse FcγRIIb; type: binding; details: Biacore T-200, Steady State Affinity mode
T1 construct: purchased R&D Systems, Inc
T1 sequence (P08101 30-330): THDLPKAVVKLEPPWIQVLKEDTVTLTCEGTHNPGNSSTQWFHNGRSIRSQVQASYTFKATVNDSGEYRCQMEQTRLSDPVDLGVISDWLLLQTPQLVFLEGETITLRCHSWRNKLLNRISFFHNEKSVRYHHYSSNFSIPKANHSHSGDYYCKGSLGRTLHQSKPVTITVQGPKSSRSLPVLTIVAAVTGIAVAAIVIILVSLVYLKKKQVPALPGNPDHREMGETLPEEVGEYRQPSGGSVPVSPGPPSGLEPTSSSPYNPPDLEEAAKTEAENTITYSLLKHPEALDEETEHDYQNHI
Description: (§1) The various H7 chimeric antibodies prepared in Example 8 and the parent antibody H7 rat IgG2a-type antibody were evaluated for their affinity for mouse FcγR using Biacore T-200 (manufactured by GE Healthcare Japan Corp.). An anti-tetra His mouse antibody (manufactured by Qiagen N.V.) was immobilized with 8000 RU as a guideline onto CM5 sensor chip using an amine coupling kit (all manufactured by GE Healthcare Japan Corp.). The coupling buffer used was 10 mM sodium acetate (pH 4.5). His tag-fused mouse FcγRI, IIb, III, and IV proteins (all manufactured by R&D Systems, Inc.) each dissolved at 2 μg/mL in HBS-EP(+) were captured as ligands at 2 μL/min for 30 sec. Then, each antibody serially diluted into concentrations of […] was added thereto as an analyte by the multicycle method. The flow rate was 5 μL/min, and the contact time and the dissociation time were both set to a condition of 240 sec. The analysis was carried out using Biacore T200 Evaluation software on the Steady State Affinity mode. A rise in binding activity against FcγRI and FcγRIV involved in in vivo mouse effector activity was observed by the alteration of the H7 constant region from rat IgG2a type to hIgG1 type.

[3] = test system: mouse IL-5Rα-expressing cell Y16; assay: Antigen binding activity of chimeric antibodies on Y16 cells by FCM; type: cell-based; details: 0.6-10000 ng/mL antibody, 4° C. 60 min; FIG. 12
Description: The chimeric antibodies prepared in Example 8 were evaluated for their antigen binding activity using a mouse-derived cell line Y16 expressing IL-5R. The Y16 cells were washed with SM (staining medium containing 2% FCS, 0.05% NaN3, and 1 mM EDTA in PBS). Then, Mouse BD Fc Block (manufactured by Becton, Dickinson and Company) was added thereto at a concentration of 5 μg/mL, and the mixture was left standing at 4° C. for 30 min. The cells were inoculated at a cell number of 1×10^5 cells/well to a 96-well U-bottom plate, and each chimeric antibody adjusted to a final concentration of 10000, 2500, 625, 156, 39, 10, 2.4, or 0.6 ng/mL was added thereto, followed by reaction at 4° C. for 60 min. The rat/human chimeric control antibodies used were rtDNP-1 hIgG1 (DF) antibody (KM8808) and rtDNP-1 hIgG1 (N297A) antibody (KM6161). The nucleotide sequences and amino acid sequences of the variable regions of each isotype control antibody are shown in SEQ ID NOs: 29 to 34. After washing of the cells with SM, Goat F(ab′)2 Anti-Human IgG PE (γ chain specific) (manufactured by Southern Biotech) diluted 500-fold with SM was added thereto, followed by reaction at 4° C. for 60 min. After washing of the cells with SM, the cells were resuspended in 50 μL of SM. Fluorescence intensity was measured by FCM (flow cytometer FACS Canto II (manufactured by Becton, Dickinson and Company)). The data was analyzed using FlowJo 7.65 (manufactured by Tomy Digital Biology Co., Ltd.) to calculate a Geomean value at each concentration.

[4] = biological target: T2, mouse FcγRIV (Mus musculus, UniProt A0A0B4J1G0); assay: Biacore steady state affinity for mouse FcγRIV; type: binding; details: Biacore T-200, Steady State Affinity mode
T2 construct: purchased R&D Systems, Inc
T2 sequence (A0A0B4J1G0 21-249): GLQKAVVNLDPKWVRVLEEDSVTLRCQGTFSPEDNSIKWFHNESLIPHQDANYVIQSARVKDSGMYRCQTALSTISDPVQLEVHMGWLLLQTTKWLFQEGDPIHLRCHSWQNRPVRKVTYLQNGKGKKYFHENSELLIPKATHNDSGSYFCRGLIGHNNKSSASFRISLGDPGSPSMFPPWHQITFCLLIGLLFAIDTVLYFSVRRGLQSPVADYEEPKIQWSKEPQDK
Description: as §1

[5] = test system: Y16 cells; assay: ADCC activity against Y16 cells with human PBMC effector cells (LDH release); type: cell-based, mouse; details: 4 hrs, 0.0001-1000 ng/mL (control antibodies 1000 ng/mL), FIG. 13
Description: The H7 recombinant chimeric antibodies prepared in Example 8 were evaluated for their ADCC activity against Y16 cells using frozen human peripheral blood mononuclear cells (PBMCs) (manufactured by AllCells) as effector cells. The frozen human PBMCs were shake-cultured (37° C., 5% CO2, overnight) in RPMI1640 medium containing 5% FBS. The Y16 cells (target cells) and the human PBMCs (effector cells) were washed with ADCC assay medium (RPIM1640 containing 5% dialyzed FBS) and adjusted to cell densities of 2×10^5 cells/mL and 3×10^6 cells/mL, respectively. The cells were washed twice with a medium and then suspended into cell densities of 4×10^5 cells/mL. Each chimeric antibody adjusted to a final concentration of 0.0001, 0.001, 0.01, 0.1, 1, 10, 100, or 1000 ng/mL, the target cells (2×10^4 cells/well), and the effector cells (5×10^5 cells/well) were added in this order at 50 μL/well to a 96-well U-bottom plate. The control antibodies used were the rtDNP-1 hIgG1 (DF) antibody (KM8808) and the rtDNP-1 hIgG1 (N297A) antibody (KM6161) of Example 10 adjusted to a final concentration of 1000 ng/mL. The plate was centrifuged (500 rpm, 5 min) and then left standing in an incubator (37° C., 5% CO2, 4 hrs). The plate was centrifuged (1500 rpm, 5 min) to recover a supernatant at 50 μL/well into a 96-well Flat-bottom plate (manufactured by Sumitomo Bakelite Co., Ltd.). Lactate dehydrogenase (LDH) activity in the supernatant was detected using CytoTox 96 Non-Radioactive Cytotoxicity Assay (manufactured by Promega Corp.). Absorbance at 490 nm was measured using a plate reader SPECTRA MAX 340 PC384 (manufactured by Molecular Devices, LLC). The ADCC activity (%) was calculated according to the following equation using background-corrected measurement values. Cytotoxicity=[[Absorbance of the sample]−[Absorbance derived from spontaneous release from the target cells and the effector cells]]/[[Absorbance derived from total release from the target cells]−[Absorbance derived from spontaneous release from the target cells]]

[6] = biological target: T3, mouse FcγRIII (Mus musculus, UniProt P08508); assay: Biacore steady state affinity for mouse FcγRIII; type: binding; details: Biacore T-200, Steady State Affinity mode
T3 construct: purchased R&D Systems, Inc
T3 sequence (P08508 31-261): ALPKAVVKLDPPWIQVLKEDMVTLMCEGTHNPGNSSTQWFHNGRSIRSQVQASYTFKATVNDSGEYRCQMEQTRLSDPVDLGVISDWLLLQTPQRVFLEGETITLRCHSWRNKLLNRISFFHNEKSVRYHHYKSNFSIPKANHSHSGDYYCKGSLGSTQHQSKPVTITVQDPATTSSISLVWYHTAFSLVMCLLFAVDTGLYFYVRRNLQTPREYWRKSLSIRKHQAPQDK
Description: as §1

[7] = biological target: T4, mouse FcγRI (Mus musculus, UniProt P26151); assay: Biacore steady state affinity for mouse FcγRI; type: binding; details: Biacore T-200, Steady State Affinity mode
T4 construct: purchased R&D Systems, Inc
T4 sequence (P26151 25-404): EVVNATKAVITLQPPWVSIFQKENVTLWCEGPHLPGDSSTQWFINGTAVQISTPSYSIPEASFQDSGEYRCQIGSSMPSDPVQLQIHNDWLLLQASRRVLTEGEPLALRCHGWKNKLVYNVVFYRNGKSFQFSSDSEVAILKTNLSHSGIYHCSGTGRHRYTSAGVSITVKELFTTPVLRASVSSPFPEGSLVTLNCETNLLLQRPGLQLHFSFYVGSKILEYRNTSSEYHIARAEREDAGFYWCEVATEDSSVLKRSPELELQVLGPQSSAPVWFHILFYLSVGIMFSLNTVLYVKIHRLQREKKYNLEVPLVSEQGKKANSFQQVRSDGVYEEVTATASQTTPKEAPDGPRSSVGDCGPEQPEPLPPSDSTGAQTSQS
Description: as §1

Molecule: CC#CCC(C)[C@H](O)/C=C/[C@@H]1[C@H]2C/C(=C/CCCC(=O)O)C[C@H]2C[C@H]1O (some centres unmarked) [iloprost]
- pulmonary vascular wall thickening (histological scores, Heath-Edwards grading) [1]: evident decrease in pulmonary vascular wall thickening was observed

- Affinity KD for mouse FcγRIIb [2]: no binding
- Kd [4]: 89.5 nM
- Affinity KD for mouse FcγRIII [6]: no binding
- Kd [7]: 137 nM
B1: H7-1: core fucose-deficient rat/human chimeric antibody of anti-IL-5R rat monoclonal antibody H7, human IgG1 constant region (antibody, V domains shown)
VH: EVQLQQSGAELGKPGTSVKLSCKVSGYNIKNTYIHWVNQRPGKGLEWIGRIDPANGNPIYAEKFKNKATLTADTSSNTAYMQLSQLKSDDTAIYFCAMHRGHSMGPGPYVMDAWGQGASVTVSS
VL: DIQMTQSPASLSASLGETVTIECRTSEDIYNGLAWYQQKPGKSPQLLIYNANSLHTGVPSRFSGSGSGTQYSLKINSLQSEDVASYCCQQYSNYPFTFGSGTKLEIK
- antigen binding activity (fluorescence intensity, Geomean) on Y16 cells [3]: confirmed to react equivalently
- ADCC activity against Y16 cells [5]: exhibited antibody concentration-dependent ADCC activity

- Affinity KD for mouse FcγRIIb [2]: no binding
- Affinity KD for mouse FcγRIV [4]: very weak
- Affinity KD for mouse FcγRIII [6]: no binding
- Affinity KD for mouse FcγRI [7]: very weak
B2: H7 ratIgG2a: parent anti-IL-5R rat monoclonal antibody H7, rat IgG2a type (Hitoshi et al.) (antibody, V domains shown)
VH: B1 VH
VL: B1 VL

- Affinity KD for mouse FcγRIIb [2]: no binding
- Affinity KD for mouse FcγRIV [4]: no binding
- Affinity KD for mouse FcγRIII [6]: no binding
- Affinity KD for mouse FcγRI [7]: very weak
B3: H7-3: N-linked sugar chain-deficient H7 chimeric antibody, human IgG1 (N297A), lacking ADCC activity (antibody, V domains shown)
VH: B1 VH
VL: B1 VL
- antigen binding activity (fluorescence intensity, Geomean) on Y16 cells [3]: confirmed to react equivalently
- ADCC activity against Y16 cells [5]: none
